Reference: the supplement of paper PMC6379048

How the values were obtained:
Experiment in all cases: Kd (EC50 corrected by depletion factor)
[1] = biological target: T1, ERI3 (UniProt O43414)
T1 sequence: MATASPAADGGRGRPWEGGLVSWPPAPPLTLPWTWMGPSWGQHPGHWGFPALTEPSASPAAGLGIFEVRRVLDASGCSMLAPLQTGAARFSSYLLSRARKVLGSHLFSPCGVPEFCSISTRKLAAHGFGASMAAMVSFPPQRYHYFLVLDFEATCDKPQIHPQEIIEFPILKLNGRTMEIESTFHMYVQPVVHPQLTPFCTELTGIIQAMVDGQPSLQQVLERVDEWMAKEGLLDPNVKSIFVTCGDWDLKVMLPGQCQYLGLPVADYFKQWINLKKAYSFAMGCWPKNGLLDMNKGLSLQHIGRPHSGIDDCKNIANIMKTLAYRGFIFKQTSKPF
Procedure, shortened: (§1)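 HEK293-FT lysate (2.5 mg protein/well) was pre-incubated 1 h at 4°C with free RNA oligos (0 nM to 30 μM), then 30 min at 4°C with the same 5′-amino-C6 oligos coupled to NHS-Sepharose beads. Bound proteins were quantified by label-free LC-MS/MS in three biological replicates and two independent experiments, and normalised to the water control. EC50 came from a four-parameter log-logistic fit; Kd is EC50 times a protein-dependent depletion factor.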

[2] = biological target: T2, ZGPAT (UniProt Q8N5A5)
T2 sequence: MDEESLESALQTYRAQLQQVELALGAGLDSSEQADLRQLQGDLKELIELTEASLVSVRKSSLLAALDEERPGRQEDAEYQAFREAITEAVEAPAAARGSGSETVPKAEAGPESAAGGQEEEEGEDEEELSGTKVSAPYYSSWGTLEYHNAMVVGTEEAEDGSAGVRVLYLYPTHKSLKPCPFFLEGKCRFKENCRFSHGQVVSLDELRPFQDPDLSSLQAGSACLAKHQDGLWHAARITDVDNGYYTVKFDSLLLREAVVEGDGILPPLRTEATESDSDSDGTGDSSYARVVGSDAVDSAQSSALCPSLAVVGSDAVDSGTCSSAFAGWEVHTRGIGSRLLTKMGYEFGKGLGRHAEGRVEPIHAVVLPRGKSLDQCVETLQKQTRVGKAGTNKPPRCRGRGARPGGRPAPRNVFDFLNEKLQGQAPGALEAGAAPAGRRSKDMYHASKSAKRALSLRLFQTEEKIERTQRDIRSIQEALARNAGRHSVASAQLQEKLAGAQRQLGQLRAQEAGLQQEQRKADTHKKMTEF
Procedure, shortened: as §1

[3] = biological target: T3, ZRANB2 (UniProt O95218)
T3 sequence: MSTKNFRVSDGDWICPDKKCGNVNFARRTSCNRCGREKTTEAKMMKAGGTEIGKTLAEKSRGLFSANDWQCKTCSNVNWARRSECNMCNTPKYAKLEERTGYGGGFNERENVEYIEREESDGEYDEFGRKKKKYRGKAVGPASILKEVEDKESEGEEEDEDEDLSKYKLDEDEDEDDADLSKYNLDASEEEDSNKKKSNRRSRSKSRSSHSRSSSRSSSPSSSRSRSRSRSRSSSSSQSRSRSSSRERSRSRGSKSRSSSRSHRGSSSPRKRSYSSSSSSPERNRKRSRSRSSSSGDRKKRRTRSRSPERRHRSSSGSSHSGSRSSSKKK
Procedure, shortened: as §1

[4] = biological target: T4, HNRNPF (UniProt P52597)
T4 sequence: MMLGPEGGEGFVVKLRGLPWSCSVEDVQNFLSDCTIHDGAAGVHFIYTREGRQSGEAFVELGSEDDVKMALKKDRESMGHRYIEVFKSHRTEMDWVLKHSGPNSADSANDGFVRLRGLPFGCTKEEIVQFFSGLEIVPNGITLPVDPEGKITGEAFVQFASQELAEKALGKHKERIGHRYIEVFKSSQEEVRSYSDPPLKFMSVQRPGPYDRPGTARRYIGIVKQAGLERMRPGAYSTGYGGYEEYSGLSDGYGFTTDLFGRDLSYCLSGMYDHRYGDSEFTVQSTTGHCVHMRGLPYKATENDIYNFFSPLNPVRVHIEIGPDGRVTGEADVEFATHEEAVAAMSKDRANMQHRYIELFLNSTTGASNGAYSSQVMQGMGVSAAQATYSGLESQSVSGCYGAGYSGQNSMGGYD
Procedure, shortened: as §1

[5] = biological target: ICT1 (UniProt Q14197)
Procedure, shortened: as §1

[6] = biological target: RPS3 (UniProt P23396)
Procedure, shortened: as §1

[7] = biological target: RPSA (UniProt P08865)
Procedure, shortened: as §1

[8] = biological target: MRPL13 (UniProt Q9BYD1)
Procedure, shortened: as §1

[9] = biological target: HNRNPU (UniProt Q00839)
Sequence of HNRNPU (Q00839 whole entry): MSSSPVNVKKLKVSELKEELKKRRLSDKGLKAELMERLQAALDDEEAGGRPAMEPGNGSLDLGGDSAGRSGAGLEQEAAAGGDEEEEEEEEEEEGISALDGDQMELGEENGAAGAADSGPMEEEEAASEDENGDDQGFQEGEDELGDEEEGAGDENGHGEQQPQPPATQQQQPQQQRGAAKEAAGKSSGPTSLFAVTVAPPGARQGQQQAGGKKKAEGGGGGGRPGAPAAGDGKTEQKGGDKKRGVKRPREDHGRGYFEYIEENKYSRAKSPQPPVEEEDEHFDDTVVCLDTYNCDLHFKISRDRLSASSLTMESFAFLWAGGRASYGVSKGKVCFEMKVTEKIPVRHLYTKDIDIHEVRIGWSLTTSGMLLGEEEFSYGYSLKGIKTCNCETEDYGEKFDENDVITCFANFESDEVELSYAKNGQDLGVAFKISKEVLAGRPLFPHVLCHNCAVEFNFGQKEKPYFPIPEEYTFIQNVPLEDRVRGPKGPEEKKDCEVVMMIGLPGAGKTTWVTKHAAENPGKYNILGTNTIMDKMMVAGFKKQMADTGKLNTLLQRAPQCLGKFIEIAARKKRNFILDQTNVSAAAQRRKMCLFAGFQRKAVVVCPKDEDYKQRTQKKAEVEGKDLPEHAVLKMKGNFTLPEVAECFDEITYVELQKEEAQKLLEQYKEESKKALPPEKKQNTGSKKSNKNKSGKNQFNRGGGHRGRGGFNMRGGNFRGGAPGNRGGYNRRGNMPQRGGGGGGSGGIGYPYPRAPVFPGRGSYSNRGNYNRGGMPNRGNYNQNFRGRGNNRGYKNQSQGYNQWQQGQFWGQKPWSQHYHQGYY
Procedure, shortened: as §1

[10] = biological target: ZCCHC11 (UniProt Q5TAX3)
Sequence of ZCCHC11 (Q5TAX3 whole entry): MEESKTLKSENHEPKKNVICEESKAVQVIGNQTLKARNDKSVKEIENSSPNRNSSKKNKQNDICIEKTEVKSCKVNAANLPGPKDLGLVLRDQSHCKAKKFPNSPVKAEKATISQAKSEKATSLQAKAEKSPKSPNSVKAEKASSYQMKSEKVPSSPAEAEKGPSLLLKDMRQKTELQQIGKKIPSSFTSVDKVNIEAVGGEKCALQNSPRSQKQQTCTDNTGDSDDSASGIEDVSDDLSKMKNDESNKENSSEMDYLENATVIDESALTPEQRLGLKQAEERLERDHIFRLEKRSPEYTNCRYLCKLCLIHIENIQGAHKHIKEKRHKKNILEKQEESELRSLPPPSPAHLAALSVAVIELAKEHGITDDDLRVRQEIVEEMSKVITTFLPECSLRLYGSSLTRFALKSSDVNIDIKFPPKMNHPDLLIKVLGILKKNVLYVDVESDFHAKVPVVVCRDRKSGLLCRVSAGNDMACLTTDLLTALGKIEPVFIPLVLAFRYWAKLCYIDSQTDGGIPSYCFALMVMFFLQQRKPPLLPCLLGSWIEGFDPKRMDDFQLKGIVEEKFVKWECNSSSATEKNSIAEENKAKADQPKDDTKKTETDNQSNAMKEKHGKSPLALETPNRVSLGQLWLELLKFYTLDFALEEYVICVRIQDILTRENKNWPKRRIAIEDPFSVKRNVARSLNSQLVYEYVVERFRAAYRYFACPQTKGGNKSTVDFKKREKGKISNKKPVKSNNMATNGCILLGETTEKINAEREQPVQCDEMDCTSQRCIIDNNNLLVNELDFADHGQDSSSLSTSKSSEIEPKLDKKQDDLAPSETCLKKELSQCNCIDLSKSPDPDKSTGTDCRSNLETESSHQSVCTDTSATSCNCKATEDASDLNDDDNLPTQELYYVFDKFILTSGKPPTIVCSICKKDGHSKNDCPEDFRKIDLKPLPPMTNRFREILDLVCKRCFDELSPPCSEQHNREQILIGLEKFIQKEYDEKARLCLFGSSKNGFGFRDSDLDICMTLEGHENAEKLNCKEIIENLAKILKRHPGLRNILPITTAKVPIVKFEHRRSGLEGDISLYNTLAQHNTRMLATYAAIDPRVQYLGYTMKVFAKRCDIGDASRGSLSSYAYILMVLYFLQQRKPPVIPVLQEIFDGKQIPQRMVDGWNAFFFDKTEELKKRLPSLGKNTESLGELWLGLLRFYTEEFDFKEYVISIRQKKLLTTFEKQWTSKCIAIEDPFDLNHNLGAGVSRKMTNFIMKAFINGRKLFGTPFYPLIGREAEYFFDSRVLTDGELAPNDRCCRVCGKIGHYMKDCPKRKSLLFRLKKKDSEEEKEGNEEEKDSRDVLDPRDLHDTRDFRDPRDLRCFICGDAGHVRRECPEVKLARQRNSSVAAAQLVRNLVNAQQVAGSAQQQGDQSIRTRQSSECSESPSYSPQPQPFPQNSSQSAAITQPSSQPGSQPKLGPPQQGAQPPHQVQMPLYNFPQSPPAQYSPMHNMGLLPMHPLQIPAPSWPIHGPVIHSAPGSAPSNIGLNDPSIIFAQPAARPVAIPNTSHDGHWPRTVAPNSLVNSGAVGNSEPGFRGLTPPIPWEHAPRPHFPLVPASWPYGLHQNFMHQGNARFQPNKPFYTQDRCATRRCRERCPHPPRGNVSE
Procedure, shortened: as §1

[11] = biological target: T5, GRSF1 (UniProt Q12849)
T5 sequence: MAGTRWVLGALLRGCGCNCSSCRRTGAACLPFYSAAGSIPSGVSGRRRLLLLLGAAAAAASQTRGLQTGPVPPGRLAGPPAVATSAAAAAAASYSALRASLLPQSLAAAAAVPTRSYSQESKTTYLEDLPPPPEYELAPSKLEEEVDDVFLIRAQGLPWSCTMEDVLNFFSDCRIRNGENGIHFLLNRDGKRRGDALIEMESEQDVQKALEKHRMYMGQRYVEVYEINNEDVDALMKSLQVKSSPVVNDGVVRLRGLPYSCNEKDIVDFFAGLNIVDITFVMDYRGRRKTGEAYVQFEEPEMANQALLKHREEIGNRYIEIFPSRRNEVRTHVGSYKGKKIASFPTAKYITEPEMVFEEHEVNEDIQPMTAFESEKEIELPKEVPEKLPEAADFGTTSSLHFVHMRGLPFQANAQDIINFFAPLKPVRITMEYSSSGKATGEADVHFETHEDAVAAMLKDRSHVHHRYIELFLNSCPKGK
Procedure, shortened: as §1

[12] = biological target: HNRNPA2B1 (UniProt P22626)
Sequence of HNRNPA2B1 (P22626 whole entry): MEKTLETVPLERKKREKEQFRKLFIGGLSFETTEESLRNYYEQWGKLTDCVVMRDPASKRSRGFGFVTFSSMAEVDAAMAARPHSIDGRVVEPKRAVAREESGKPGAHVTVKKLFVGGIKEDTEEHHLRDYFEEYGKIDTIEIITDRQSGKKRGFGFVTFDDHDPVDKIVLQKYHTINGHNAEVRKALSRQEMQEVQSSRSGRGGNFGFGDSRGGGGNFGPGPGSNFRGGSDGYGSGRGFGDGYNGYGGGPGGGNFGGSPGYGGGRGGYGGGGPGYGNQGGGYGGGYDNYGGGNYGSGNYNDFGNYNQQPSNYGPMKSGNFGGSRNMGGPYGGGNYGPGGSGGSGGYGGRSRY
Procedure, shortened: as §1

## AAUAAA
[1]
  Kd: 173 nM
[2]
  Kd: 4390 nM
[3]
  Kd: 217 nM
[4]
  Kd: 6290 nM

## CUGUCCU
[5]
  Kd: 48.1 nM
[6]
  Kd: 109 nM
[7]
  Kd: 187 nM
[8]
  Kd: 78.4 nM
[9]
  Kd: 90.1 nM

## UAUUUAU
[10]
  Kd: 91.8 nM
[11]
  Kd: 3420 nM
[12]
  Kd: 4900 nM
